Assay results taken from PMC4209447.

Columns and labels:
[1] = biological target: protein A/G (recombinant fusion protein with protein A and protein G binding sites)
[2] = biological target: protein A/G (recombinant fusion protein with protein A and protein G binding sites); remark: listed apart in the source

peak wavelength shift after 80 minutes of injection [1]: 6 nm | exponential constant of the fit to the association phase (peak wavelength shift) [2]: 0.000533
Substance: Human IgG protein (antibody)
